B1: AB1 alanine variant 19 (H:Y26A) (antibody, V domains shown)
VH: QVQLQQSGAELAKPGSSVKISCKAAGSSFTTNSIHWIKQTTGQALEWTGYIAPGSGGARYNEKFKGKATLTVDKSSGTAYMQLSSLTPVDTAVYYCALNIGTNPFTYWGQGTLVTVSS
VL: DIVMTQGALPNPVPSGESVSITCRSSKSLLYSDGKTYLNWYLQRPGQSPQLLIYWMSTRASGVSDRFSGSGSGTDFTLKISGVEAEDVGVYYCQQGLEFPRTFGSGTKLEIK
notes: IMGT numbering; IgG1, as m1; also called control; source: HEK293FT, transiently transfected, purified (Protein A)
B2: AB1 affinity maturation variant 10 (H:T110F) (antibody, V domains shown)
VH: B1 VH with A25Y, T102F
VL: B1 VL
notes: IMGT numbering; IgG1, as m1; source: HEK293FT, transiently transfected, purified (Protein A)
B3: AB1 alanine variant 21 (L:Y31A/Y38A) (antibody, V domains shown)
VH: B1 VH with A25Y
VL: B1 VL with Y31A, Y37A
notes: IMGT numbering; IgG1, as m1; intermediate construct; source: HEK293FT, transiently transfected, purified (Protein A)
B4: AB1 alanine variant 8 (H:T110A, L:Y31A, L:D34A) (antibody, V domains shown)
VH: B1 VH with A25Y, T102A
VL: B1 VL with Y31A, D33A
notes: as for B2
B5: AB1 alanine variant 15 (L:D34A) (antibody, V domains shown)
VH: B1 VH with A25Y
VL: B1 VL with D33A
notes: as for B2
B6: AB1 alanine variant 11 (H:Y55A) (antibody, V domains shown)
VH: B1 VH with A25Y, Y50A
VL: B1 VL
notes: as for B2
B7: AB1 affinity maturation variant 11 (H:N113R) (antibody, V domains shown)
VH: B1 VH with A25Y, N103R
VL: B1 VL
notes: as for B2
B8: AB1 affinity maturation variant 19 (L:F114R) (antibody, V domains shown)
VH: B1 VH with A25Y
VL: B1 VL with F99R
notes: as for B2
B9: AB1 alanine variant 14 (L:Y31A) (antibody, V domains shown)
VH: B1 VH with A25Y
VL: B1 VL with Y31A
notes: as for B2
B10: AB1 alanine variant 20 (L:S26A) (antibody, V domains shown)
VH: B1 VH with A25Y
VL: B1 VL with S26A
notes: as for B1
B11: AB1 alanine variant 17 (L:Y38A) (antibody, V domains shown)
VH: B1 VH with A25Y
VL: B1 VL with Y37A
notes: as for B2
B12: AB1 affinity maturation variant 4 (H:N37T) (antibody, V domains shown)
VH: B1 VH with A25Y, N32T
VL: B1 VL
notes: as for B2
B13: AB1 alanine variant 6 (H:S29A, L:Y31A, L:Y38A) (antibody, V domains shown)
VH: B1 VH with A25Y, S28A
VL: B1 VL with Y31A, Y37A
notes: as for B2
B14: AB1 affinity maturation variant 2 (H:S29D) (antibody, V domains shown)
VH: B1 VH with A25Y, S28D
VL: B1 VL
notes: as for B2
B15: AB1 alanine variant 2 (H:T35A) (antibody, V domains shown)
VH: B1 VH with A25Y, T30A
VL: B1 VL
notes: as for B2
B16: AB1 alanine variant 12 (H:N107A) (antibody, V domains shown)
VH: B1 VH with A25Y, N99A
VL: B1 VL
notes: as for B2
B17: AB1 alanine variant 5 (H:Y55A, H:R66A, L:Y31A) (antibody, V domains shown)
VH: B1 VH with A25Y, Y50A, R59A
VL: B1 VL with Y31A
notes: as for B2
B18: AB1 affinity maturation variant 14 (L:S32D) (antibody, V domains shown)
VH: B1 VH with A25Y
VL: B1 VL with S32D
notes: as for B2
B19: AB1 alanine variant 3 (H:R66A) (antibody, V domains shown)
VH: B1 VH with A25Y, R59A
VL: B1 VL
notes: as for B2
B20: AB1 affinity maturation variant 17 (L:K36R) (antibody, V domains shown)
VH: B1 VH with A25Y
VL: B1 VL with K35R
notes: as for B2
B21: AB1 affinity maturation variant 15 (L:D34Q) (antibody, V domains shown)
VH: B1 VH with A25Y
VL: B1 VL with D33Q
notes: as for B2
B22: AB1 alanine variant 13 (H:T110A) (antibody, V domains shown)
VH: B1 VH with A25Y, T102A
VL: B1 VL
notes: as for B2
B23: AB1 alanine variant 9 (H:T35A, H:N107A, L:R116A) (antibody, V domains shown)
VH: B1 VH with A25Y, T30A, N99A
VL: B1 VL with R101A
notes: as for B2
B24: AB1 alanine variant 18 (L:R116A) (antibody, V domains shown)
VH: B1 VH with A25Y
VL: B1 VL with R101A
notes: as for B2
B25: AB1 affinity maturation variant 20 (L:Q106Y) (antibody, V domains shown)
VH: B1 VH with A25Y
VL: B1 VL with Q95Y
notes: IMGT numbering; IgG1, as m1; also called neutral control mutation; source: HEK293FT, transiently transfected, purified (Protein A)
B26: AB1 alanine variant 16 (L:K36A) (antibody, V domains shown)
VH: B1 VH with A25Y
VL: B1 VL with K35A
notes: as for B2
B27: AB1 alanine variant 1 (H:S29A) (antibody, V domains shown)
VH: B1 VH with A25Y, S28A
VL: B1 VL
notes: as for B2
B28: AB1 affinity maturation variant 7 (H:A65Y) (antibody, V domains shown)
VH: B1 VH with A25Y, A58Y
VL: B1 VL
notes: as for B2
B29: AB1 alanine variant 10 (H:S28A) (antibody, V domains shown)
VH: B1 VH with A25Y, S27A
VL: B1 VL
notes: as for B2
B30: AB1 affinity maturation variant 9 (H:T110W) (antibody, V domains shown)
VH: B1 VH with A25Y, T102W
VL: B1 VL
notes: as for B2
B31: AB1 affinity maturation variant 5 (H:G59Y) (antibody, V domains shown)
VH: B1 VH with A25Y, G54Y
VL: B1 VL
notes: as for B2
B32: AB1 affinity maturation variant 8 (H:I108R) (antibody, V domains shown)
VH: B1 VH with A25Y, I100R
VL: B1 VL
notes: as for B2
B33: AB1 alanine variant 22 (L:Y31A/D34A) (antibody, V domains shown)
VH: B1 VH with A25Y
VL: B1 VL with Y31A, D33A
notes: as for B3
B34: AB1 affinity maturation variant 6 (H:G64T) (antibody, V domains shown)
VH: B1 VH with A25Y, G57T
VL: B1 VL
notes: as for B2
B35: AB1 affinity maturation variant 13 (H:T116R) (antibody, V domains shown)
VH: B1 VH with A25Y, T106R
VL: B1 VL
notes: as for B2
B36: AB1 alanine variant 4 (H:N113A) (antibody, V domains shown)
VH: B1 VH with A25Y, N103A
VL: B1 VL
notes: as for B2
B37: AB1 affinity maturation variant 12 (H:F115H) (antibody, V domains shown)
VH: B1 VH with A25Y, F105H
VL: B1 VL
notes: as for B2
B38: AB1 affinity maturation variant 18 (L:Y38R) (antibody, V domains shown)
VH: B1 VH with A25Y
VL: B1 VL with Y37R
notes: as for B2
B39: AB1 affinity maturation variant 3 (H:T36Q) (antibody, V domains shown)
VH: B1 VH with A25Y, T31Q
VL: B1 VL
notes: as for B2
B40: AB1 alanine variant 23 (H:T35A/N107A/L:Y31A) (antibody, V domains shown)
VH: B1 VH with A25Y, T30A, N99A
VL: B1 VL with Y31A
notes: as for B3

Residue numbers refer to the chain shown, from its start. Numbers in names are those of the source.

We go through 40 molecules from PMC6513101, “Experimentally guided computational antibody affinity maturation with de novo docking, modelling and rational design” (PLoS Computational Biology, 2019).

The experiment deals with T1, biotinylated murine CCL20 (Mus musculus, UniProt O89093, biotin).
T1 construct: CCL20, mouse; recombinant; m2 with biotin; also called biotinylated muCCL20; muCCL20 antigen; source: in-house, standard mammalian cell expression; biotinylated
In words: ELISA; capture ELISA: plate-coated anti-mouse Fc antibody (1 ug/mL) captures the antibody variant (5 ug/mL); biotinylated muCCL20 titrated from 0 to 600 nM, 1 h. Particulars: both partners purified. On the technique in general: An ELISA detects its analyte on a solid surface through an enzyme-linked reagent.
As for B1, the binding result is “binds”.

In the case of B2, the binding result was “binds”.

On to B3, for which the binding result was “no binding (tested: 600 nM)”.

On to B4, for which the binding result was “no binding (tested: 600 nM)”.

Consider B5, for which the binding result is “no binding (tested: 600 nM)”.

Take B6: the binding result is recorded as “no binding (tested: 600 nM)”.

Regarding B7, the binding result is “binds”.

As for B8, the binding result is “binds”.

As for B9, the binding result was “binds”.

Consider B10, for which the binding result is reported as “binds”.

On to B11, for which the binding result is “no binding (tested: 600 nM)”.

On to B12, for which the binding result is recorded as “binds”.

Regarding B13, the binding result is reported as “no binding (tested: 600 nM)”.

For B14, the binding result is “binds”.

On to B15, for which the binding result is “binds”.

As for B16, the binding result is “no binding (tested: 600 nM)”.

Regarding B17, the binding result is on record as “binds”.

With B18, the binding result is on record as “binds”.

With B19, the binding result is on record as “binds”.

As for B20, the binding result is given as “binds”.

With B21, the binding result was “binds”.

With B22, the binding result was “binds”.

Take B23: the binding result is given as “no binding (tested: 600 nM)”.

As to B24, the binding result was “binds”.

As to B25, the binding result is listed as “binds”.

For the molecule B26, the “fold reduction of binding affinity against WT AB1” value was 3 fold.

With B27, the binding result is listed as “binds”.

Take B28: the binding result is “binds”.

Regarding B29, the binding result is on record as “binds”.

Take B30: the binding result is “binds”.

B31: the binding result is given as “binds”.

On to B32, for which the binding result is “binds”.

Take B33: the binding result is given as “no binding (tested: 600 nM)”.

B34: the binding result is given as “binds”.

For B35, the binding result is on record as “binds”.

With B36, the binding result is reported as “no binding (tested: 600 nM)”.

For the molecule B37, the binding result is recorded as “binds”.

Consider B38, for which the binding result is “binds”.

Consider B39, for which the binding result is listed as “binds”.

Regarding B40, the binding result is “no binding (tested: 600 nM)”.
